Data published in US20250018036A1 (published 2025).
One block for each binder: values may come before it.

Biological target: T1, SOX2 peptide on HLA-A*02:01 (human)
T1 peptide: YLPGAEVPEPA
Experiment: multimer staining
Experimental: Methods: TCR expression vectors were sequenced after Gibson assembly to confirm successful insertion of the TCR expression cassettes into the pRRLSIN vector. Lentiviral particles were generated using the 293T/17 packaging cell line and the Effectene kit (Qiagen). CD8⁺ T cells were isolated from a healthy donor (18648) using negative magnetic separation (Easy Sep Kit, […] Technologies), stimulated for 4 hours with anti-CD3/CD28 beads (Dynabeads), and transduced with SOX2-TCR-encoding lentiviral particles collected from 293T/17 cells. Transduced CD8⁺ T cells were assessed for tetramer staining on day 5 post transduction. SOX2-TCR⁺ CD8⁺ T cells are sorted for rapid expansion, and assessed for response to different peptide concentrations, and target killing.

binding result: recognises
B1: SOX2 TCR #05 (TCR, V domains shown)
Valpha: AQKITQTQPGMFVQEKEAVTLDCTYDTSDPSYGLFWYKQPSSGEMIFLIYQGSYDQQNATEGRYSLNFQKARKSANLVISASQLGDSAMYFCAMREGMGFQKLVFGTGTRLLVSP
Vbeta: DVKVTQSSRYLVKRTGEKVFLECVQDMDHENMFWYRQDPGLGLRLIYFSYDVKMKEKGDIPEGYSVSREKKERFSLILESASTNQTSMYLCASRPEMGGRGNQPQHFGDGTRLSIL

binding result: recognises
B2: SOX2 TCR #10 (TCR, V domains shown)
Valpha: GEDVEQSLFLSVREGDSSVINCTYTDSSSTYLYWYKQEPGAGLQLLTYIFSNMDMKQDQRLTVLLNKKDKHLSLRIADTQTGDSAIYFCAGPLGGSQGNLIFGKGTKLSVKP
Vbeta: EADIYQTPRYLVIGTGKKITLECSQTMGHDKMYWYQQDPGMELHLIHYSYGVNSTEKGDLSSESTVSRIRTEHFPLTLESARPSHTSQYLCASSRGPEAFFGQGTRLTVV
